Test results as given in PMC4923858.

Key:
TβRII-GFP [1] = biological target: TβRII-GFP (UniProt P37173); assay: AFM single-molecule force spectroscopy; TGF-β1-modified AFM tips on live HeLa cells expressing TβRII-GFP; contact mode, room temperature, loading rate 1.0 x 10^4 pN/s; untreated cells
TβRII-GFP [2] = biological target: TβRII-GFP (UniProt P37173); assay: AFM single-molecule force spectroscopy; TGF-β1-modified AFM tips on live HeLa cells expressing TβRII-GFP; contact mode, room temperature, loading rate 1.0 x 10^4 pN/s; cells treated with 50 μM metformin

Chain of TβRII-GFP (P37173 23-567): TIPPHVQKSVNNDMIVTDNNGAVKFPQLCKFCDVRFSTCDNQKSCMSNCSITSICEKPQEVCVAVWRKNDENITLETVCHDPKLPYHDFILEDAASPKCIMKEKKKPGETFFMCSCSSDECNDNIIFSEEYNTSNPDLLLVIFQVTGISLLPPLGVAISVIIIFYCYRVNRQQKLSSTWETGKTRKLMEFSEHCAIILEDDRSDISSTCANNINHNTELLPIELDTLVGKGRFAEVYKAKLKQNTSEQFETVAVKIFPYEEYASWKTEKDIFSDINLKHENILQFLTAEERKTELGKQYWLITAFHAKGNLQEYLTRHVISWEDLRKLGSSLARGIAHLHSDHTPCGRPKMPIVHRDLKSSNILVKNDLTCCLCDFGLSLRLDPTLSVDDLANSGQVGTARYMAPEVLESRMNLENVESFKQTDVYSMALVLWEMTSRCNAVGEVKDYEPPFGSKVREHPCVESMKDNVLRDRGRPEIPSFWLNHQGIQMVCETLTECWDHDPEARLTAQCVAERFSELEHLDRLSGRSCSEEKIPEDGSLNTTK

Recombinant human TGF-β1 (ligand)
binding force (averaged histogram peak value) (TβRII-GFP [1]): 49.5 pN | binding probability (TβRII-GFP [1]): 21.7% | binding force (averaged histogram peak value), with 50 μM metformin (TβRII-GFP [2]): 49.3 pN | binding probability, with 50 μM metformin (TβRII-GFP [2]): 9.9%
